From publication PMC6123721 (2018)

B1: 6D8 single-chain Fv (scFv) (scFv, V domains shown)
VH: QVQLQQSGDELVKPGASVKLSCTVSGFNIKDDFIHWMKQRPEQGLEWIGRIDPANGYTKYAPKFQDKATMTADTSSNTAYLQLSSLASEDAAVYYCATYGVAYWGQGTLVTVSA
VL: DIVLTQSPASLAVSLGQRATISCKASQSVDHDGDSYMNWFQQKPGQSPKLLIYAASNLESGIPARFSGSGSGTDFTLNIHPVEEEDAATYYCQQTNEDPYTFGGGTKLEIK

Assays:
Assay in all cases: ITC
[1] = molecular target: 3D7-MSP2
[2] = molecular target: FC27-MSP2
[3] = molecular target: B1

| Binder | Kd [1] | Kd [2] | Kd [3] |
| --- | --- | --- | --- |
| B1 | 61 nM | 13 nM | – |
| NAYNMSIRRSMAESKPSTGAG [3D7 MSP2 14-34 peptide (C-terminally extended epitope, 3D7 allele)] | – | – | 64 nM |
| NAYNMSIRR [MSP2 14-22 peptide (minimal 6D8 epitope of merozoite surface protein 2)] | – | – | 6 nM |
| NAYNMSIRRSMANEGSNTNSV [FC27 MSP2 14-34 peptide (C-terminally extended epitope, FC27 allele)] | – | – | 16 nM |
